Read-outs that look alike come from different tables or passages of the source.
T1: Importin β (Kap95p), scImpβ-His6 (yeast, UniProt Q06142 1-861)
T1 sequence (looked up): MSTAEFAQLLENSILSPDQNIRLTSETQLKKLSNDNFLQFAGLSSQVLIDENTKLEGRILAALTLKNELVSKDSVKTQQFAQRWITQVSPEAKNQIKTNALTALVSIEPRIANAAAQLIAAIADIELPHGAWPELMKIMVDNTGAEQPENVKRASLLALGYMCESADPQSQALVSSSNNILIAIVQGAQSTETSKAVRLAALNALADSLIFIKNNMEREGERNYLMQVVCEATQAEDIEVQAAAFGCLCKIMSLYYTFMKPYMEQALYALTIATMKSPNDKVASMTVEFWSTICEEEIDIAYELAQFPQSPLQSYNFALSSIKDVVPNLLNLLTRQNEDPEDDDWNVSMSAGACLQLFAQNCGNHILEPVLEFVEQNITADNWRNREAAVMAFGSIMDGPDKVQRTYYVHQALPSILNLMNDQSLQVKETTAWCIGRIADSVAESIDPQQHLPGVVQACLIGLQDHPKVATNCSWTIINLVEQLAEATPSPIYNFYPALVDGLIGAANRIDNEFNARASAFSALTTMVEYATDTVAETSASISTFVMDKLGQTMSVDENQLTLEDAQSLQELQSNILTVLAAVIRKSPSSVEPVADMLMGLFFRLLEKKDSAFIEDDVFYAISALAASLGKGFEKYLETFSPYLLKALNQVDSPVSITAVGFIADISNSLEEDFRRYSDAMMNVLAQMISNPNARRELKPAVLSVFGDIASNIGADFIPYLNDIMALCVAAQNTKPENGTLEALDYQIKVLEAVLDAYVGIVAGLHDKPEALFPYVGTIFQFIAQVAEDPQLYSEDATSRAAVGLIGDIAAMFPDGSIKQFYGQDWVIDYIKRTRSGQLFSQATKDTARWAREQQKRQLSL


What was measured:
[1] = biological target: T1, Importin β (Kap95p), scImpβ-His6; experiment: SEC
[2] = biological target: T1, Importin β (Kap95p), scImpβ-His6; experiment: SEC; remark: listed apart in the source

| Binder | binding result [1] | binding result [2] |
| --- | --- | --- |
| IBB-MBP-mEGFP (domain or fragment, Saccharomyces cerevisiae, UniProt Q02821 2-63, looked up) DNGTDSSTSKFVPEYRRTNFKNKGRFSADELRRRRDTQQVELRKAKRDEALAKRRNFIPPTD | binds |  |
| IBB-ZsGreen (domain or fragment, Saccharomyces cerevisiae, UniProt Q02821 2-63, looked up) DNGTDSSTSKFVPEYRRTNFKNKGRFSADELRRRRDTQQVELRKAKRDEALAKRRNFIPPTD |  | binds |

Source: paper PMC2728434 (The EMBO Journal, 2009)
